Entries after “also recorded” stand apart in the source; their conditions may differ.
What was measured:
NOX4 = target: T1, NOX4 (Homo sapiens, UniProt Q9NPH5); test: NOX4 inhibitor in rhIL11-stimulated human hepatocytes; type: cell-based; details: rhIL11 10 ng ml^-1, 24 h
T1 construct: Human hepatocytes (5200, ScienCell) were maintained in hepatocyte medium; host or cells: primary human hepatocytes

human hepatocytes [1] = test: APAP-mediated activation of Erk and Jnk, western blot; type: cell-based; details: APAP 10 mM, 24 hours; X209 2 μg/ml
[2] = tested on: APAP overdose acute liver injury; test: Severe APAP overdose in mice, anti-IL11Rα antibody (X209) 16 h before; type: in vivo, mouse; details: 20 mg/kg IP 16 hours before APAP 400 mg/kg
[3] = tested on: primary human hepatocytes; test: APAP-challenged primary human hepatocytes with X209; type: cell-based; details: APAP 20 mM, X209 2 μg ml^-1, 24 h
Text: PI^+ve cells were quantified with the flow cytometer (Fortessa, BD Biosciences) and analyzed with FlowJo version 7 software (TreeStar).

human hepatocytes [4] = test: APAP-mediated hepatocyte death, Annexin V/PI flow cytometry; details: APAP 20 mM, 24 hours; X209 2 μg/ml
Method: Cells were serum-starved for 16 hours prior to their used in experiments, by culture in serum-free hepatocyte medium.
Hepatocytes were then stained using the FITC Annexin V/Dead Cell Apoptosis Kit (V13242, Thermo Fisher) according to the manufacturer's instructions, and Annexin V-FITC/PI-stained cells were analysed by flow cytometry using a BD LSRFortessa flow cytometer (BD Bioscience). 10,000 cells were analyzed per sample. Data was analyzed using FlowJo version 7 software.

AILI [5] = test: X209 preventive dosing 16 h prior to APAP in mice (6.8)
Method: (§1) Mice were administered anti-IL11Rα (X209) or IgG isotype control antibody at different times and doses, as described above or in the figure legends.
(§2) The levels of alanine transaminase (ALT) or aspartate aminotransferase (AST) in mouse serum and hepatocyte supernatant were measured using ALT Activity (ab105134, Abcam) or AST (ab105135, Abcam) Assay Kits. Liver glutathione sulfhydryl (GSH) measurements were performed using Glutathione Colorimetric Detection Kit (EIAGSHC, Thermo Fisher). All colorimetric assays were performed according to the manufacturer's protocol.
Livers were fixed for 48 h at room temperature (RT) in 10% neutral-buffered formalin (NBF), dehydrated, embedded in paraffin blocks and sectioned at 7 μm. Sections were stained with H&E according to standard protocol and examined by light microscopy.

[6] = tested on: APAP-induced liver injury; test: Mouse model of APAP-induced liver injury, anti-IL-11Rα antibody 16 h prior to APAP (Example 2)
Method: Liver samples were excised and fixed for 48 hours at room temperature in 10% neutral-buffered formalin (NBF), dehydrated, embedded in paraffin blocks and sectioned at 7 μm. Sections were stained with Hematoxylin&Eosin (H&E) according to standard protocol and examined by light microscopy.

lethal APAP overdose = test: Lethal APAP overdose in mice, X209 10 h after; type: in vivo, mouse; details: for gross liver morphology / serum ALT levels versus normal (saline) control mice: day 8 after APAP 550 mg/kg, 20 mg/kg 10 h after
Method: Mice were euthanized at 24 hours and 192 hours (8 days). Serum ALT levels were analysed as described in Example 4. Livers were harvested, and fixed as described in Example 4, and digital photographs were taken.

AILI [7] = test: X209, NAC or NAC+X209 3 h after APAP in mice
Method: as §1, §2
Western blots were carried out from hepatocyte and liver tissue lysates. Hepatocytes and tissues were homogenized in radioimmunoprecipitation assay (RIPA) buffer containing protease and phosphatase inhibitors (Thermo Fisher), followed by centrifugation to clear the lysate. Protein concentrations were determined by Bradford assay (Bio-Rad). Equal amounts of protein lysates were separated by SDS-PAGE, transferred to PVDF membrane, and subjected to immunoblot analysis for the indicated primary antibodies. Proteins were visualized using the ECL detection system (Pierce) with the appropriate secondary antibodies.

[8] = tested on: APAP overdose acute liver injury; test: Severe APAP overdose in mice, X209 10 h after; type: in vivo, mouse
Method: Mice were euthanized at 24, 36 and 48 hours. Serum ALT levels were analysed as described in Example 4.
Livers were harvested, and fixed as described in Example 4, and digital photographs were taken.
Western blots were also performed on protein extracts prepared from the livers of the mice.

[9] = 10 mg/kg IP 16 hours prior to APAP 400 mg/kg
[10] = listed as Antagonist antibody inhibitor of IL-11 mediated signalling
[11] = 20 mg/kg 10 h after APAP 400 mg/kg
[12] = 20 mg/kg IP 10 hours after APAP 400 mg/kg

T1 sequence (Q9NPH5 whole entry): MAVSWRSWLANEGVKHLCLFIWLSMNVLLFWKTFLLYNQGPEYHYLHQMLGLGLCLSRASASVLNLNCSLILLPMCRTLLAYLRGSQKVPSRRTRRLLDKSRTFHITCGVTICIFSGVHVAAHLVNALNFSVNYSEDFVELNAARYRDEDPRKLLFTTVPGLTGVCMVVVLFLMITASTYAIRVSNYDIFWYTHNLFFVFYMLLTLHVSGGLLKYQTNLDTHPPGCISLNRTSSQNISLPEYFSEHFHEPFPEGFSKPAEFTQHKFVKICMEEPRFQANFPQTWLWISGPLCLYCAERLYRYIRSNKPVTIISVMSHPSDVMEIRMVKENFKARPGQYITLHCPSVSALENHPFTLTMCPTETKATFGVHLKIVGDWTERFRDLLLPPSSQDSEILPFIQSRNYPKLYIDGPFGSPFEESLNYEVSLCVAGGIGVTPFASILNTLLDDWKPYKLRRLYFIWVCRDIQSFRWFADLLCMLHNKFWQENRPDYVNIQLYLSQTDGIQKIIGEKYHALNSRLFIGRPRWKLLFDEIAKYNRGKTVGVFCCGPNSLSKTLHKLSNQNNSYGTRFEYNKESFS
T1 sequence (P13498 2-195 partner limits assumed): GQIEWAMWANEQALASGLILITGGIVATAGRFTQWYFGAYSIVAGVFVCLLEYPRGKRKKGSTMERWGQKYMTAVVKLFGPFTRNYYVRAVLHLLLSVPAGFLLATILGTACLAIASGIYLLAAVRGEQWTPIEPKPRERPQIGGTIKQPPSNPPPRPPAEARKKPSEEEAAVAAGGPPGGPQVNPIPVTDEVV

CN(C)c1cccc(-c2c3c(=O)n(-c4ccccc4Cl)[nH]c3cc(=O)n2C)c1 [GKT-13781]
IL11-stimulated GSH depletion, CASP3 activation and cell death (NOX4): prevented IL11-stimulated GSH depletion, CASP3 activation and cell death in a dose-dependent manner

B1: X209: antagonist (neutralizing) anti-IL11Rα antibody (Widjaja et al., Gastroenterology 2019; Aldevron) (antibody, V domains shown)
VH: QVQLQQPGAELVRPGSSVKLSCKASGYTFTNYWMHWLKQRPVQGLEWIGNIGPSDSKTHYNQKFKDKATLTVDKSSSTAYMQLNSLTSEDSAVYYCARGDYVLFTYWGQGTLVTVSA
VL: DIVLTQSPATLSLSPGERATLSCRASQSISNNLHWYQQKSHEAPRLLIKYASQSISGIPARFSGSGSGTDFTLSFSSLETEDFAVYFCQQSYSWPLTFGQGTKLEIK
levels of p-ERK and pJNK (human hepatocytes [1]): substantially reduce the levels of p-ERK and pJNK
hepatocyte necrosis, H&E [2]: substantially less hepatocyte necrosis
serum ALT levels ([2]; 24 hours after APAP): substantial reduction in serum ALT levels
APAP-induced NOX4 upregulation and depletion in hepatocyte GSH levels [3]: blocked
CASP3 cleavage, cell death, ERK and JNK activation [3]: inhibited CASP3 cleavage and cell death, as well as ERK and JNK activation
proportion of dead hepatocytes (human hepatocytes [4]): substantially reduce the proportion of dead hepatocytes
centrilobular necrosis, histology (AILI [5]; 10 mg kg^-1 16 h prior to APAP): limited histological evidence of centrilobular necrosis
hepatic GSH levels (AILI [5]; 10 mg kg^-1 16 h prior to APAP): largely restored hepatic GSH levels
reduction of serum markers of liver damage (AILI [5]; 10 mg kg^-1 16 h prior to APAP 400 mg kg^-1): over 70%
APAP-induced loss in liver mass (liver index) [6, 9]: prevent APAP-induced loss in liver mass
centrilobular necrosis, H&E liver histology [6, 9]: reduced
ALT levels lower compared to IgG control ([6]; 10 mg/kg IP 16 hours prior to APAP 400 mg/kg, 24 hours post-APAP): 55%
mobility and activity of the mice ([6]; 24 hours post-APAP treatment): normal mobility and activity
survival by the study end (lethal APAP overdose; 20 mg/kg 10 h after lethal APAP 550 mg/kg, 8 days): 90%
survival relative to IgG-treated controls (lethal APAP overdose; 20 mg/kg IP 10 hours after APAP 550 mg/kg, monitored 8 days): significantly improved survival
gross liver morphology (lethal APAP overdose): normal liver morphology
serum ALT levels versus normal (saline) control mice (lethal APAP overdose): comparable to controls
gross liver morphology (lethal APAP overdose; [10]): restore gross liver morphology
serum ALT levels versus normal (saline) control mice (lethal APAP overdose; [10]): not significantly different
JNK and ERK activation (AILI [7]; 2.5-10 mg kg^-1 3 h after APAP): Reduced JNK and ERK activation
markers of liver damage and hepatic GSH levels (AILI [7]; 2.5-10 mg kg^-1 3 h after APAP): dose-dependent improvements in markers of liver damage and in hepatic GSH levels
ALT reduction (AILI [7]; 3 h after APAP, NAC 500 mg kg^-1, X209 5 mg kg^-1): 47%
EdU staining, nuclei with recent DNA synthesis [8, 11]: very large numbers of nuclei with evidence of recent DNA synthesis
cleaved CASP3 in liver [8, 11]: reduction in cleaved CASP3 at 24 h
liver damage (gross anatomy, histology, serum IL11, ALT and AST levels) [8, 11]: largely reversed liver damage by the second day after APAP
liver regeneration markers (PCNA, Cyclin D1/D3/E1, p-RB) [8, 11]: strong upregulation of PCNA, Cyclin D1/D3/E1, and phosphorylation of RB
gross liver morphology [8, 12]: restore gross liver morphology
hepatic ERK and JNK activation (p-ERK, pJNK1, pJNK2), western blot [8, 12]: substantially reduced the levels of p-ERK, pJNK1 and pJNK2; also recorded: effectively blocked ERK and JNK activation
serum ALT levels ([8]; 20 mg/kg IP 10 hours after APAP 400 mg/kg, 24, 36 and 48 hours): substantial reduction in serum ALT levels
